Series [1] deals with HeLa Kyoto. The experiment in a line: solubility in G1/S (NP-40 vs SDS abundance) (log2 ratio); higher = more soluble. As to conditions: cell cycle stage: G1/S.
For series [2], the system named is HeLa Kyoto. Nature of the series: melting temperature (median over replicates), in situ; higher = more thermally stable.
Series [3] deals with HeLa Kyoto. The experiment in a line: solubility change mitosis vs G1/S (difference of NP-40 vs SDS log2 ratios) (log2 ratio difference); higher = more soluble in mitosis.
The subject of series [4] is HeLa Kyoto. The experiment in a line: thermal stability score vs G1/S (z-score of summed log2 fold changes over temperatures); higher = more thermally stable than in G1/S.
The mark [5] stands for this setting: cell cycle stage: early G1 (4.5 h after nocodazole release).
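For melting temperature (median over replicates), in situ in this document: HeLa Kyoto cells synchronized by double thymidine or nocodazole block, proteins quantified by TMT10plex mass spectrometry, three independent biological replicates.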
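For solubility change mitosis vs G1/S (difference of NP-40 vs SDS log2 ratios) in this document: synchronized HeLa Kyoto cells (double thymidine block for G1/S, nocodazole release for mitosis), protein amounts in NP-40 versus SDS lysates quantified by mass spectrometry, three biological replicates.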
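For solubility in G1/S (NP-40 vs SDS abundance) in this document: HeLa Kyoto cells arrested at G1/S by double thymidine block, proteins quantified by TMT10plex mass spectrometry in mild NP-40 versus SDS extracts, three biological replicates.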
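For thermal stability score vs G1/S (z-score of summed log2 fold changes over temperatures) in this document: synchronized HeLa Kyoto cells, proteins quantified by TMT10plex mass spectrometry, three biological replicates, mitosis taken 0.5 h after nocodazole release, G1/S directly after double thymidine block.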

“MPQYQTWEEFSRAAEKLYLADPMKARVVLKYRHSDGNLCVKVTDDLVCLVYKTDQAQDVKKIEKFHSQLMRLMVAKEARNVTMETE [SRP9]”: the “solubility in G1/S (log2)” value in the series on HeLa Kyoto [1] was -0.607. Besides, the melting temperature turned out to be 53.5 °C in the series with HeLa Kyoto [2] (cell cycle stage: G1/S) and 52.1 °C in the series on HeLa Kyoto [2] (cell cycle stage: mitosis). Moreover, in the series on HeLa Kyoto [3], the “solubility change mitosis (log2)” value is 0.394. In addition, the thermal stability score with HeLa Kyoto [4] (setting [5]) is -2.84; in the series with HeLa Kyoto [4] (cell cycle stage: mitosis), -5.71.

“MAASALYACTKCTQRYPFEELSQGQQLCKECRIAHPIVKCTYCRSEFQQESKTNTICKKCAQNVKQFGTPKPCQYCNIIAAFIGTKCQRCTNSEKKYGPPQTCEQCKQQCAFDRKEEGRRKVDGKLLCWLCTLSYKRVLQKTKEQRKSLGSSHSNSSSSSLTEKDQHHPKHHHHHHHHHHRHSSSHHKISNLSPEEEQGLWKQSHKSSATIQNETPKKKPKLESKPSNGDSSSINQSADSGGTDNFVLISQLKEEVMSLKRLLQQRDQTILEKDKKLTELKADFQYQESNLRTKMNSMEKAHKETVEQLQAKNRELLKQVAALSKGKKFDKSGSILTSP [FAM76B]”: the “solubility in G1/S (log2)” value in the series with HeLa Kyoto [1] was -0.529. For the same substance, the melting temperature in the series with HeLa Kyoto [2] (cell cycle stage: mitosis) turned out to be 51.3 °C. Moreover, the “solubility change mitosis (log2)” value in the series on HeLa Kyoto [3] was found to be 0.486. The thermal stability score with HeLa Kyoto [4] (setting [5]) is -0.509; with HeLa Kyoto [4] (cell cycle stage: mitosis), 0.107.

Regarding “MAQESPKNSAAEIPVTSNGEVDDSREHSFNRDLKHSLPSGLGLSETQITSHGFDNTKEGVIEAGAFQGSPAPPLPSVMSPSRVAASRLAQQGSDLIVPAGGQRTQTKSGPVILADEIKNPAMEKLELVRKWSLNTYKCTRQIISEKLGRGSRTVDLELEAQIDILRDNKKKYENILKLAQTLSTQLFQMVHTQRQLGDAFADLSLKSLELHEEFGYNADTQKLLAKNGETLLGAINFFIASVNTLVNKTIEDTLMTVKQYESARIEYDAYRTDLEELNLGPRDANTLPKIEQSQHLFQAHKEKYDKMRNDVSVKLKFLEENKVKVLHNQLVLFHNAIAAYFAGNQKQLEQTLKQFHIKLKTPGVDAPSWLEEQ [ARFIP1]”, the “solubility in G1/S (log2)” value in the series with HeLa Kyoto [1] is 0.623. For the same substance, the melting temperature was 51.2 °C with HeLa Kyoto [2] (cell cycle stage: G1/S) and 50.9 °C with HeLa Kyoto [2] (cell cycle stage: mitosis). For the same substance, in the series on HeLa Kyoto [3], the “solubility change mitosis (log2)” value is -0.00419. Moreover, the results for the thermal stability score in the series with HeLa Kyoto [4] (setting [5]) and in the series with HeLa Kyoto [4] (cell cycle stage: mitosis) were -0.0158 and 0.558, respectively.

Take TRIP12: the “solubility in G1/S (log2)” value with HeLa Kyoto [1] was -0.461. Besides, the melting temperature with HeLa Kyoto [2] (cell cycle stage: G1/S) amounted to 48.4 °C; in the series with HeLa Kyoto [2] (cell cycle stage: mitosis), 48.7 °C. The “solubility change mitosis (log2)” value in the series with HeLa Kyoto [3] came to 0.333. Also, the results for the thermal stability score in the series on HeLa Kyoto [4] (setting [5]) and with HeLa Kyoto [4] (cell cycle stage: mitosis) were -0.291 and 0.532, respectively.

In the case of “MAARTVIIDHGSGFLKAGTAGWNEPQMVFPNIVNYLPCKENPGPSYARRRVSLGIDICHPDTFSYPIERGRILNWEGVQYLWSFVLENHRREQEVPPVIITETPLREPADRKKMLEILFELLHVPSVLLADQLQMSLYASGLLTGVVVDSGYGLTRVQPFHQGRPLPASGKTLEFAGQDLSAYLLKSLFKEDCDRRCLFQLETVAVTQMNKCYVPQNLGEALDFRERQQSALDESNTYQLPDGSRVELTPMQRVAPEMFFSPQVFEQPGPSIPRAIVESVESCEISLRPLLVSHVMACGGNTLYPGFTKRLFRELMGDHVSSTKATVWEGSNRNFSVWLGASVVAHLSTYQSEWMSREEYGEHMRM [ACTL8]”, the “solubility in G1/S (log2)” value with HeLa Kyoto [1] was -0.19. The melting temperature in the series on HeLa Kyoto [2] (cell cycle stage: G1/S) was determined as 52.8 °C; in the series with HeLa Kyoto [2] (cell cycle stage: mitosis), 52.4 °C. In the series with HeLa Kyoto [3], the “solubility change mitosis (log2)” value turned out to be 0.0715. The thermal stability score in the series on HeLa Kyoto [4] (setting [5]) was -0.233; in the series on HeLa Kyoto [4] (cell cycle stage: mitosis), -1.1.

For “MASAGDTQAGPRDAADQNFDYMFKLLLIGNSSVGKTSFLFRYADDSFTPAFVSTVGIDFKVKTVYRHDKRIKLQIWDTAGQERYRTITTAYYRGAMGFLLMYDIANQESFAAVQDWATQIKTYSWDNAQVILVGNKCDLEDERVVPAEDGRRLADDLGFEFFEASAKENINVKQVFERLVDVICEKMNESLEPSSSSGSNGKGPAVGDAPAPQPSSCSC [RAB3D]”, the “solubility in G1/S (log2)” value with HeLa Kyoto [1] was found to be 0.0512. Further, the melting temperature in the series on HeLa Kyoto [2] (cell cycle stage: G1/S) came to 57.2 °C; in the series with HeLa Kyoto [2] (cell cycle stage: mitosis), 57.6 °C. Also, in the series on HeLa Kyoto [3], the “solubility change mitosis (log2)” value is -0.109. Besides, the thermal stability score in the series on HeLa Kyoto [4] (setting [5]) is -1.66; in the series with HeLa Kyoto [4] (cell cycle stage: mitosis) it was -1.58.

“MTTYLEFIQQNEERDGVRFSWNVWPSSRLEATRMVVPVAALFTPLKERPDLPPIQYEPVLCSRTTCRAVLNPLCQVDYRAKLWACNFCYQRNQFPPSYAGISELNQPAELLPQFSSIEYVVLRGPQMPLIFLYVVDTCMEDEDLQALKESMQMSLSLLPPTALVGLITFGRMVQVHELGCEGISKSYVFRGTKDLSAKQLQEMLGLSKVPLTQATRGPQVQQPPPSNRFLQPVQKIDMNLTDLLGELQRDPWPVPQGKRPLRSSGVALSIAVGLLECTFPNTGARIMMFIGGPATQGPGMVVGDELKTPIRSWHDIDKDNAKYVKKGTKHFEALANRAATTGHVIDIYACALDQTGLLEMKCCPNLTGGYMVMGDSFNTSLFKQTFQRVFTKDMHGQFKMGFGGTLEIKTSREIKISGAIGPCVSLNSKGPCVSENEIGTGGTCQWKICGLSPTTTLAIYFEVVNQHNAPIPQGGRGAIQFVTQYQHSSGQRRIRVTTIARNWADAQTQIQNIAASFDQEAAAILMARLAIYRAETEEGPDVLRWLDRQLIRLCQKFGEYHKDDPSSFRFSETFSLYPQFMFHLRRSSFLQVFNNSPDESSYYRHHFMRQDLTQSLIMIQPILYAYSFSGPPEPVLLDSSSILADRILLMDTFFQILIYHGETIAQWRKSGYQDMPEYENFRHLLQAPVDDAQEILHSRFPMPRYIDTEHGGSQARFLLSKVNPSQTHNNMYAWGQESGAPILTDDVSLQVFMDHLKKLAVSSAA [SEC23A]”: in the series on HeLa Kyoto [1], the “solubility in G1/S (log2)” value is -0.0681. In addition, the figures for the melting temperature with HeLa Kyoto [2] (cell cycle stage: G1/S) and with HeLa Kyoto [2] (cell cycle stage: mitosis) were 50 °C and 50.2 °C, respectively. Further, the “solubility change mitosis (log2)” value in the series with HeLa Kyoto [3] was -0.0745. Besides, the thermal stability score was -0.157 with HeLa Kyoto [4] (setting [5]) and 0.129 with HeLa Kyoto [4] (cell cycle stage: mitosis).
